Measured values: doi:10.1101/2025.07.10.664194 (bioRxiv, 2025)

Target: T1, BcGabija GajA (Bacillus cereus, UniProt J8H9C1 1-578)
T1 construct: also called Bacillus cereus GajA nuclease subunit
T1 sequence: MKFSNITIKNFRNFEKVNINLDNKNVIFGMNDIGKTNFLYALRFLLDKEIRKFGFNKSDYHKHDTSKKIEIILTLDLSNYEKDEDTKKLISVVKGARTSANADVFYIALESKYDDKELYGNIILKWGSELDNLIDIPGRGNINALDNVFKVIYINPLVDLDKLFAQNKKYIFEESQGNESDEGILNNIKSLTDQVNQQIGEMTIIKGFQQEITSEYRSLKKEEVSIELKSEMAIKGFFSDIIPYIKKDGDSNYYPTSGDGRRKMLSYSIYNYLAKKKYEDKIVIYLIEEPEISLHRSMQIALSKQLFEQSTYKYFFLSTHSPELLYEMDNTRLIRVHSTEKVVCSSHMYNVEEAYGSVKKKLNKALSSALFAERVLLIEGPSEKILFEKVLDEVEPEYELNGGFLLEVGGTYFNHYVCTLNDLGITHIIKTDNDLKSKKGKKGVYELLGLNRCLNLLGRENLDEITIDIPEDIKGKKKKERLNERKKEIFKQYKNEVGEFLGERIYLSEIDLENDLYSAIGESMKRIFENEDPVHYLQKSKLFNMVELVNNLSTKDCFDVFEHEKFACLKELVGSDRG
Assay: mass photometry
Details: both partners purified

B1: BcGabija GajB (natural protein)
chain: MSREQIIKDGGNILVTAGAGSGKTTILVSKIEADLKENKTHYSIAAVTFTNKAAKEIEGRLGYSSRGNFIGTNDGFVESEIIRPFIKDAFGNDYPDNFTAEYFDNQFASYDKGLQVLKYQNILGTYSNPKKNFKFQLALDILKKSLVARQYIFSKYFKIFIDEYQDSDKDMHNLFMYLKDQLKIKLFIVGDPKQSIYIWRGAEPENFNGLIENSTDFNKYHLTSNFRCCQDIQNYSNLFNEETRSLIKEKNEVQNVISIADDMPISDILLKLTEEKQVLNIEAELVILVRRRNQAIEIMKELNEEGFNFIFIPQTPLDRATPNATLLKEVIKYVKNDRYSIYDLAAEIVGNLSSREIKEIQKIINELLVPNINQVLINQVLINLFAKLEITLDTREITAFTEVMMTNEFDIAFDTNEYLHKIFTVHSAKGLEFNQVIITASDYNVHYNRDTNEHYVATTRAKDKLIVIMDNKKYSDYIETLMKELKIKNIIKSI
notes: also called NTPase subunit of BcGabija
  stoichiometry N: 1 GajA:GajB (4:4)
